Laboratory results: the supplement of paper PMC10065799, “High-throughput profiling of sequence recognition by tyrosine kinases and SH2 domains using bacterial peptide display” (eLife, 2023)

target: c-Src SH2; test: SH2 binding enrichment of the phosphorylated peptide, bacterial display (enrichment ratio); higher = better substrate or ligand; peptides without Tyr show the background
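Wherever SH2 binding enrichment of the phosphorylated peptide, bacterial display is given: peptide library displayed on the E. coli surface as eCPX fusions, selected cells deep-sequenced, score is each peptide's frequency after selection divided by its frequency in the input.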

Sequence | SH2 binding enrichment
IWGKKYPTCNS [PTPRZ1_Y53_N48I] | 0.846
IINENYDYLKV [NUP98_Y1664_G1669V] | 0.595
PTTKTYFPRFD [HBA1_Y43_H46R] | 0.446
FQQLFYLLQIN [IQGAP2_Y890_T894I_YF] | 0.889
AVHPGYGFLSE [PCCA_Y143] | 0.466
PNATLYKMTSI [SERPINA7_Y40_S43T] | 0.272
EYKKKYSDADI [CKAP5_Y1860] | 0.435
PQGVSYIYTID [DCX_Y103_R102S] | 0.644
VDGSLYKTHPQ [HK1_Y417] | 0.465
KKLAEYGPQGK [CLCA1_Y147_R152K] | 0.491
SDPIIYTLENV [ADGRE1_Y534_I539V] | 0.554
DVSKEYGHLLP [HRC_Y99] | 0.425
DKVFTYIFIME [SCN4A_Y1074] | 0.469
IGEGTYGQVYK [CDK13_Y716] | 0.471
TNEYEYDELIV [TGM1_Y136_D132N] | 0.84
LTQRTYMSENA [GPAA1_Y49] | 0.422
QMRLRYLAAEE [CEP120_Y884] | 0.445

Sequence | SH2 binding enrichment
RVSSVYTRSTG [CCR5_Y339_A335V] | 0.517
AEFGLYGAMVR [VSX2_Y222_YF] | 0.42
ADQLDYIKALN [HPRT1_Y81_L78Q] | 0.491
TRTDAYAVSSF | 0.837
TLNHQYDYTFD [CSNK1A1_Y292] | 9.88
FGVTLYPNSRE [MEP1A_Y472] | 0.638
DQVEQYNKELE [LMNA_Y259_K260N] | 0.441
HEHKGYNANFC [TGFB2_Y341_P338H] | 0.655
LGSNGCKKLLK [SEPSECS_Y334_Y334C] | 0.849
KNGSNYVVKGN [KIT_Y823_D820G] | 0.527
WEPFGYAVTRC [PTPRT_Y412] | 0.685
RSFLSYFTSHV [NEFL_Y442_P440L_YF] | 0.697
ADELEYSRTGL [MMUT_Y287_G284E] | 0.457
IIGNGYYFHVF [MYBPC3_Y1135_R1138H] | 0.542
YLQEIHNSNNQ [FGG_Y140_Y140H] | 0.578
EQPNPYMVLDI [ROCK2_Y1197_S1194P] | 0.732

target: SHP2-C SH2; test: as above

Sequence | SH2 binding enrichment
IWGKKYPTCNS [PTPRZ1_Y53_N48I] | 0.89
IINENYDYLKV [NUP98_Y1664_G1669V] | 0.687
PTTKTYFPRFD [HBA1_Y43_H46R] | 0.91
FQQLFYLLQIN [IQGAP2_Y890_T894I_YF] | 1.1
AVHPGYGFLSE [PCCA_Y143] | 0.523
PNATLYKMTSI [SERPINA7_Y40_S43T] | 0.684
EYKKKYSDADI [CKAP5_Y1860] | 0.614
PQGVSYIYTID [DCX_Y103_R102S] | 13
VDGSLYKTHPQ [HK1_Y417] | 0.596
KKLAEYGPQGK [CLCA1_Y147_R152K] | 0.609
SDPIIYTLENV [ADGRE1_Y534_I539V] | 0.682
DVSKEYGHLLP [HRC_Y99] | 0.581
DKVFTYIFIME [SCN4A_Y1074] | 0.58
IGEGTYGQVYK [CDK13_Y716] | 0.944
TNEYEYDELIV [TGM1_Y136_D132N] | 0.854
LTQRTYMSENA [GPAA1_Y49] | 0.801
QMRLRYLAAEE [CEP120_Y884] | 0.982

Sequence | SH2 binding enrichment
RVSSVYTRSTG [CCR5_Y339_A335V] | 1.1
AEFGLYGAMVR [VSX2_Y222_YF] | 0.816
ADQLDYIKALN [HPRT1_Y81_L78Q] | 0.559
TRTDAYAVSSF | 0.525
TLNHQYDYTFD [CSNK1A1_Y292] | 0.691
FGVTLYPNSRE [MEP1A_Y472] | 0.858
DQVEQYNKELE [LMNA_Y259_K260N] | 0.81
HEHKGYNANFC [TGFB2_Y341_P338H] | 0.647
LGSNGCKKLLK [SEPSECS_Y334_Y334C] | 0.786
KNGSNYVVKGN [KIT_Y823_D820G] | 0.782
WEPFGYAVTRC [PTPRT_Y412] | 0.589
RSFLSYFTSHV [NEFL_Y442_P440L_YF] | 1.3
ADELEYSRTGL [MMUT_Y287_G284E] | 0.623
IIGNGYYFHVF [MYBPC3_Y1135_R1138H] | 0.81
YLQEIHNSNNQ [FGG_Y140_Y140H] | 0.871
EQPNPYMVLDI [ROCK2_Y1197_S1194P] | 0.785

target: Grb2 SH2 (UniProt P62993); test: as above
Sequence (P62993 whole entry, looked up): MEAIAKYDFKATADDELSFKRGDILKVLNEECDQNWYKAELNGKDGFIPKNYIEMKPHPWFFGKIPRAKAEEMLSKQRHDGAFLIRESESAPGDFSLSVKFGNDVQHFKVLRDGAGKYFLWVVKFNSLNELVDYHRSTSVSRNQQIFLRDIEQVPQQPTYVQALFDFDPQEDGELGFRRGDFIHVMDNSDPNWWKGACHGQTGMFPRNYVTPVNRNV

Sequence | SH2 binding enrichment
IWGKKYPTCNS [PTPRZ1_Y53_N48I] | 1.2
IINENYDYLKV [NUP98_Y1664_G1669V] | 0.86
PTTKTYFPRFD [HBA1_Y43_H46R] | 0.819
FQQLFYLLQIN [IQGAP2_Y890_T894I_YF] | 1.14
AVHPGYGFLSE [PCCA_Y143] | 0.706
PNATLYKMTSI [SERPINA7_Y40_S43T] | 0.768
EYKKKYSDADI [CKAP5_Y1860] | 0.819
PQGVSYIYTID [DCX_Y103_R102S] | 1.05
VDGSLYKTHPQ [HK1_Y417] | 0.765
KKLAEYGPQGK [CLCA1_Y147_R152K] | 0.769
SDPIIYTLENV [ADGRE1_Y534_I539V] | 0.88
DVSKEYGHLLP [HRC_Y99] | 0.76
DKVFTYIFIME [SCN4A_Y1074] | 0.813
IGEGTYGQVYK [CDK13_Y716] | 0.667
TNEYEYDELIV [TGM1_Y136_D132N] | 0.798
LTQRTYMSENA [GPAA1_Y49] | 0.783
QMRLRYLAAEE [CEP120_Y884] | 0.664

Sequence | SH2 binding enrichment
RVSSVYTRSTG [CCR5_Y339_A335V] | 1.17
AEFGLYGAMVR [VSX2_Y222_YF] | 0.783
ADQLDYIKALN [HPRT1_Y81_L78Q] | 0.914
TRTDAYAVSSF | 0.729
TLNHQYDYTFD [CSNK1A1_Y292] | 0.779
FGVTLYPNSRE [MEP1A_Y472] | 0.891
DQVEQYNKELE [LMNA_Y259_K260N] | 0.882
HEHKGYNANFC [TGFB2_Y341_P338H] | 0.775
LGSNGCKKLLK [SEPSECS_Y334_Y334C] | 1.02
KNGSNYVVKGN [KIT_Y823_D820G] | 0.837
WEPFGYAVTRC [PTPRT_Y412] | 0.683
RSFLSYFTSHV [NEFL_Y442_P440L_YF] | 0.893
ADELEYSRTGL [MMUT_Y287_G284E] | 0.747
IIGNGYYFHVF [MYBPC3_Y1135_R1138H] | 0.834
YLQEIHNSNNQ [FGG_Y140_Y140H] | 0.802
EQPNPYMVLDI [ROCK2_Y1197_S1194P] | 0.869

tested on: AncSZ; test: phosphorylation enrichment, bacterial display (enrichment ratio); higher = better substrate or ligand; peptides without Tyr show the background;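 further: 11-residue human phosphosite peptides and single-mutation variants displayed on the E. coli surface, counted by deep sequencing, each peptide's frequency after selection divided by its frequency in the unselected input library; frequency after pTyr selection over input frequency; kinase dosed for 20-30% of maximal phosphorylation in three min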

Sequence | phosphorylation enrichment
IWGKKYPTCNS [PTPRZ1_Y53_N48I] | 0.697
IINENYDYLKV [NUP98_Y1664_G1669V] | 1.38
PTTKTYFPRFD [HBA1_Y43_H46R] | 0.569
FQQLFYLLQIN [IQGAP2_Y890_T894I_YF] | 1.51
AVHPGYGFLSE [PCCA_Y143] | 0.663
PNATLYKMTSI [SERPINA7_Y40_S43T] | 0.883
EYKKKYSDADI [CKAP5_Y1860] | 0.709
PQGVSYIYTID [DCX_Y103_R102S] | 1.62
VDGSLYKTHPQ [HK1_Y417] | 0.472
KKLAEYGPQGK [CLCA1_Y147_R152K] | 0.361
SDPIIYTLENV [ADGRE1_Y534_I539V] | 1.1
DVSKEYGHLLP [HRC_Y99] | 0.852
DKVFTYIFIME [SCN4A_Y1074] | 1.32
IGEGTYGQVYK [CDK13_Y716] | 0.605
TNEYEYDELIV [TGM1_Y136_D132N] | 1.45
LTQRTYMSENA [GPAA1_Y49] | 0.636
QMRLRYLAAEE [CEP120_Y884] | 1.11

Sequence | phosphorylation enrichment
RVSSVYTRSTG [CCR5_Y339_A335V] | 1.18
AEFGLYGAMVR [VSX2_Y222_YF] | 1.07
ADQLDYIKALN [HPRT1_Y81_L78Q] | 1.06
TRTDAYAVSSF | 0.78
TLNHQYDYTFD [CSNK1A1_Y292] | 1.05
FGVTLYPNSRE [MEP1A_Y472] | 1.02
DQVEQYNKELE [LMNA_Y259_K260N] | 1.09
HEHKGYNANFC [TGFB2_Y341_P338H] | 0.603
LGSNGCKKLLK [SEPSECS_Y334_Y334C] | 0.823
KNGSNYVVKGN [KIT_Y823_D820G] | 0.526
WEPFGYAVTRC [PTPRT_Y412] | 0.947
RSFLSYFTSHV [NEFL_Y442_P440L_YF] | 1.54
ADELEYSRTGL [MMUT_Y287_G284E] | 1.11
IIGNGYYFHVF [MYBPC3_Y1135_R1138H] | 0.946
YLQEIHNSNNQ [FGG_Y140_Y140H] | 0.618
EQPNPYMVLDI [ROCK2_Y1197_S1194P] | 1.15
